For one protein, Km results are on record in ChEMBL document CHEMBL4402607, “Molecular Basis for Omapatrilat and Sampatrilat Binding to Neprilysin-Implications for Dual Inhibitor Design with Angiotensin-Converting Enzyme” (J Med Chem, 2020).

Substrate in this data set: N=C(N)NCCC[C@H](NC(=O)[C@H](Cc1ccccc1)NC(=O)[C@@H]1CCCN1C(=O)[C@H](CO)NC(=O)[C@H](Cc1ccccc1)NC(=O)CNC(=O)[C@@H]1CCCN1C(=O)[C@@H]1CCCN1C(=O)[C@@H](N)CCCNC(=N)N)C(=O)O
Kind of data set: Substrate activity at human ACE expressed in CHO cells by HPLC analysis. It counts as cell-based.

For orientation: Km means the substrate concentration at which the rate is half of its maximum.

B1: Angiotensin-converting enzyme (Homo sapiens), P12821 (protein)
chain: MGAASGRRGPGLLLPLPLLLLLPPQPALALDPGLQPGNFSADEAGAQLFAQSYNSSAEQVLFQSVAASWAHDTNITAENARRQEEAALLSQEFAEAWGQKAKELYEPIWQNFTDPQLRRIIGAVRTLGSANLPLAKRQQYNALLSNMSRIYSTAKVCLPNKTATCWSLDPDLTNILASSRSYAMLLFAWEGWHNAAGIPLKPLYEDFTALSNEAYKQDGFTDTGAYWRSWYNSPTFEDDLEHLYQQLEPLYLNLHAFVRRALHRRYGDRYINLRGPIPAHLLGDMWAQSWENIYDMVVPFPDKPNLDVTSTMLQQGWNATHMFRVAEEFFTSLELSPMPPEFWEGSMLEKPADGREVVCHASAWDFYNRKDFRIKQCTRVTMDQLSTVHHEMGHIQYYLQYKDLPVSLRRGANPGFHEAIGDVLALSVSTPEHLHKIGLLDRVTNDTESDINYLLKMALEKIAFLPFGYLVDQWRWGVFSGRTPPSRYNFDWWYLRTKYQGICPPVTRNETHFDAGAKFHVPNVTPYIRYFVSFVLQFQFHEALCKEAGYEGPLHQCDIYRSTKAGAKLRKVLQAGSSRPWQEVLKDMVGLDALDAQPLLKYFQPVTQWLQEQNQQNGEVLGWPEYQWHPPLPDNYPEGIDLVTDEAEASKFVEEYDRTSQVVWNEYAEANWNYNTNITTETSKILLQKNMQIANHTLKYGTQARKFDVNQLQNTTIKRIIKKVQDLERAALPAQELEEYNKILLDMETTYSVATVCHPNGSCLQLEPDLTNVMATSRKYEDLLWAWEGWRDKAGRAILQFYPKYVELINQAARLNGYVDAGDSWRSMYETPSLEQDLERLFQELQPLYLNLHAYVRRALHRHYGAQHINLEGPIPAHLLGNMWAQTWSNIYDLVVPFPSAPSMDTTEAMLKQGWTPRRMFKEADDFFTSLGLLPVPPEFWNKSMLEKPTDGREVVCHASAWDFYNGKDFRIKQCTTVNLEDLVVAHHEMGHIQYFMQYKDLPVALREGANPGFHEAIGDVLALSVSTPKHLHSLNLLSSEGGSDEHDINFLMKMALDKIAFIPFSYLVDQWRWRVFDGSITKENYNQEWWSLRLKYQGLCPPVPRTQGDFDPGAKFHIPSSVPYIRYFVSFIIQFQFHEALCQAAGHTGPLHKCDIYQSKEAGQRLATAMKLGFSRPWPEAMQLITGQPNMSASAMLSYFKPLLDWLRTENELHGEKLGWPQYNWTPNSARSEGPLPDSGRVSFLGLDLDAQQARVGQWLLLFLGIALLVATLGLSQRLFSIRHRSLHRHSHGPQFGSEVELRHS
B1: the Km was 0.18 µM.
